Test results taken from patent US20120237948A1 (SHIONOGI, published 2012).

Experiments:
Test in all cases: competitive ELISA against the biotin-labeled SEQ ID NO: 2 peptide
[1] = biological target: T1, MMP13-undigested human type I collagen (human, UniProt P02452 162-1218; P08123 80-1119)
T1 construct: The chain composition comes from general knowledge; also called non-digested collagen (type I)
Method: (§1) To 10 μg/10 μl of a solution of human type I, type II, or type III collagen (Chondrex), 10 μl of 2 × enzyme reaction buffer (50 mM Tris buffer, pH 7.6, containing 0.3 M NaCl, 10 mM CaCl₂, and 0.005% Brij35) was added for neutralization. To the solution, 0.2 μg of activated human MMP13 (human Pro-MMP13 (Calbiochem), activated by incubation with 1 mM APMA at 37° C. for 2 hours), and the mixture was allowed to react overnight at 37° C. Subsequently, stop solution (EDTA, final concentration 5 mM) was added to prepare the natural type neoepitope solution.
(§2) To a 384-well microtiter plate (Nunc), 35 μl of Tris buffer (50 mM Tris-HCl, pH7.5) containing 0.35 μg of anti-mouse IgG-Fc antibody (Jackson Immuno Research) was added and incubated overnight at 4° C. for adsorption. Each well was washed once with 90 μl of washing solution (physiological saline containing 0.01% Tween20), and then 0.1 ml of Block Ace (Dainippon pharmaceuticals) was added. The plate was allowed to stand for 2 hours at room temperature for blocking (an anti-mouse IgG antibody-solid-phased plate). After each well was washed once with 90 μl of the washing solution, 10 μl of buffer A containing 6.4-250 nM of the natural type neoepitope solution was mixed with 10 μl of buffer A containing 1 ng/ml of the biotin-labeled neoepitope peptide (SEQ ID NO: 2) and 200 ng/ml of Streptavidin-HRP, and 10 μl of buffer A containing 15 ng/ml of the anti-neoepitope antibody (20A10). Then the mixture was allowed to react at 4° C. for 16 hours.
(§3) Subsequently, each well was washed three times with 90 μl of the washing solution, and 25 μl of TMB-Substrate Chromogen (DAKO) was added and incubated for 30 minutes at room temperature for color development, followed by the addition of 25 μl of 0.05 M sulfuric acid to terminate the reaction. Then, the absorbance at 450 nm was measured.

[2] = biological target: T2, MMP13-undigested human type II collagen (human, UniProt P02458 182-1241, limits assumed)
T2 construct: Triple helix of three chains; also called native type II collagen; non-digested collagen (type II)
T2 sequence (P02458 182-1241 limits assumed): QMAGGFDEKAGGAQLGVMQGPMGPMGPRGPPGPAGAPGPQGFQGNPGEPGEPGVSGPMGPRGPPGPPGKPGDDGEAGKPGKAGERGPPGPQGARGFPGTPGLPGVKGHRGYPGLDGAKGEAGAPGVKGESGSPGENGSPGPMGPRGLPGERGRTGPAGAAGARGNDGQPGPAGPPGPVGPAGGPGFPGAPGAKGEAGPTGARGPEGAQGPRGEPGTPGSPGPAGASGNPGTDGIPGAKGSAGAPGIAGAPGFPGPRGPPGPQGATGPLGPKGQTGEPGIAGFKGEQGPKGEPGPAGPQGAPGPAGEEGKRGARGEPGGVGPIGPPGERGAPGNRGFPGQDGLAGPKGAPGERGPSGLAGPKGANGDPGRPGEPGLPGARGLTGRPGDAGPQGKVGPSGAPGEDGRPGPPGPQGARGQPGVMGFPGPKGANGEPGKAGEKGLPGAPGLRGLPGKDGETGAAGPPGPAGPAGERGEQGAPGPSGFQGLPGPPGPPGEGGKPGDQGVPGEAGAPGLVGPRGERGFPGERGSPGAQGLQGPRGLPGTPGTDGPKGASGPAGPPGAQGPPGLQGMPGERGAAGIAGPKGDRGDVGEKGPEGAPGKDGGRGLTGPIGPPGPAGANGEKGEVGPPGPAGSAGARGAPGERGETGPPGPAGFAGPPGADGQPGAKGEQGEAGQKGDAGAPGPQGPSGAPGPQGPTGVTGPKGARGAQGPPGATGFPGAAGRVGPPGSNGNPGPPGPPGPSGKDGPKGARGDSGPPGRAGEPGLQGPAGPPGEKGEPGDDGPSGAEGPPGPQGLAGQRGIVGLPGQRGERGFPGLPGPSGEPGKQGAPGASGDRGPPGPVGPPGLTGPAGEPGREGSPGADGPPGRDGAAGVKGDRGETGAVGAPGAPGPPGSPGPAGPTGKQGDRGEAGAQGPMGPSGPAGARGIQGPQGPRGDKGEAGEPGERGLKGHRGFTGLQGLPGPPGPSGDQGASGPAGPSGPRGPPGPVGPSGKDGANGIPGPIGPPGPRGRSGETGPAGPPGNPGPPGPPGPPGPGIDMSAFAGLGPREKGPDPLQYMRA
Method: as §1, §2, §3

[3] = biological target: T3, MMP13-undigested human type III collagen (human, UniProt P02461 154-1221)
T3 construct: also called non-digested collagen (type III)
T3 sequence (looked up): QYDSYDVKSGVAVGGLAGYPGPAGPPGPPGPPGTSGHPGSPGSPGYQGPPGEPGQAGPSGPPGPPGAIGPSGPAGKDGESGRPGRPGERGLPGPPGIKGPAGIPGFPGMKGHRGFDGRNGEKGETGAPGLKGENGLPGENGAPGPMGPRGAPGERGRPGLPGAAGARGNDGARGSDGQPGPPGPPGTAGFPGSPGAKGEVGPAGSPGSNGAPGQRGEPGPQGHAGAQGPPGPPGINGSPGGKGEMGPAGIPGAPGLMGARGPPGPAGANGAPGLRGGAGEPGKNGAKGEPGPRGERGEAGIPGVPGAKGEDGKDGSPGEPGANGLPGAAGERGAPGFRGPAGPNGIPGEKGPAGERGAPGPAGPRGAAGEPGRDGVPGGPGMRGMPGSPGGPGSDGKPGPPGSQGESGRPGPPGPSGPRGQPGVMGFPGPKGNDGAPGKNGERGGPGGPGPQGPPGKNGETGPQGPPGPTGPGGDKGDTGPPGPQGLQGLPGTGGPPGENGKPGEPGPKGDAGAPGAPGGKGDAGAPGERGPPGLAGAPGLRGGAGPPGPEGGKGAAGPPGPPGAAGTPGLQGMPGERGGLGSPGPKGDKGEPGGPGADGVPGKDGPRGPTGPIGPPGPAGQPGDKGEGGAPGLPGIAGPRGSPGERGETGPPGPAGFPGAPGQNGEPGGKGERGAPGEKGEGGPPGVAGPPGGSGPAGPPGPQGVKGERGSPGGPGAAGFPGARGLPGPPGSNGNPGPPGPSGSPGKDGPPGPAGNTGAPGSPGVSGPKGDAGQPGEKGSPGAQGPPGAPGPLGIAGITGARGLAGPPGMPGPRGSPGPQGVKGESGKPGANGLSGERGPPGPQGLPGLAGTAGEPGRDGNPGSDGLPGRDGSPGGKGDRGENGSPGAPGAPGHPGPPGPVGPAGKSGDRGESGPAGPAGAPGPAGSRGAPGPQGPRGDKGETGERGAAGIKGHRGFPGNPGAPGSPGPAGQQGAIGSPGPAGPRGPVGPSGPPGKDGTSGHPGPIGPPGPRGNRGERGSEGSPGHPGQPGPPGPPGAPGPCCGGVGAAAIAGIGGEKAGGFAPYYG
Method: as §1, §2, §3

T1 sequence (P02452 162-1218, chain 1 of 2): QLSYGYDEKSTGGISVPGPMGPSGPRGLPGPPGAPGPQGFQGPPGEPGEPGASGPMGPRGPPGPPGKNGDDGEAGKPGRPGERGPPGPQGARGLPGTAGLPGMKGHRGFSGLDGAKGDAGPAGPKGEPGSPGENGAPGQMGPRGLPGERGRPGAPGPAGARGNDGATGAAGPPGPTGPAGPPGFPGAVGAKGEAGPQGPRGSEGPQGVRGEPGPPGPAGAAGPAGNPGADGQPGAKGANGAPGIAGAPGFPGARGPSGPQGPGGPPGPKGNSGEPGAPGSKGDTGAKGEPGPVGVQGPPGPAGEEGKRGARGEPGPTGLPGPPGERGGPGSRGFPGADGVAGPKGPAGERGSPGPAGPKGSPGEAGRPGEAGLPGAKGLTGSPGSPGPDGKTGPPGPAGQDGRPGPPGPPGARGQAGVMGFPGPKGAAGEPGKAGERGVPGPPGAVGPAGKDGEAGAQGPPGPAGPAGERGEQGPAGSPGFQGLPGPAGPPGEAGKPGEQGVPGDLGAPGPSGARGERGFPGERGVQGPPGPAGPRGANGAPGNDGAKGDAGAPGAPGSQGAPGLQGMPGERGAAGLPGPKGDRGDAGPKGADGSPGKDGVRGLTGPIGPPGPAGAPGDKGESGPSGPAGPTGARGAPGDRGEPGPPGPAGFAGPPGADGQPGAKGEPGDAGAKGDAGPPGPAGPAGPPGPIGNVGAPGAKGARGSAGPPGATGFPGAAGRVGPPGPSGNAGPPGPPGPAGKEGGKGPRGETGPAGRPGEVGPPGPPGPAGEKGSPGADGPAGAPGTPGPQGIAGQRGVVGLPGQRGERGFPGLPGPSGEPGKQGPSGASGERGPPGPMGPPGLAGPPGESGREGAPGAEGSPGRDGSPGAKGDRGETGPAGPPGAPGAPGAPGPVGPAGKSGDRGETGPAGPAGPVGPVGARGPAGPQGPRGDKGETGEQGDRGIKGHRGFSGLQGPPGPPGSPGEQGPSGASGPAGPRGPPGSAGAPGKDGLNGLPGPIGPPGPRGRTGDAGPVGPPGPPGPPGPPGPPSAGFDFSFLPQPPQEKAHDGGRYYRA
T1 sequence (P08123 80-1119, chain 2 of 2): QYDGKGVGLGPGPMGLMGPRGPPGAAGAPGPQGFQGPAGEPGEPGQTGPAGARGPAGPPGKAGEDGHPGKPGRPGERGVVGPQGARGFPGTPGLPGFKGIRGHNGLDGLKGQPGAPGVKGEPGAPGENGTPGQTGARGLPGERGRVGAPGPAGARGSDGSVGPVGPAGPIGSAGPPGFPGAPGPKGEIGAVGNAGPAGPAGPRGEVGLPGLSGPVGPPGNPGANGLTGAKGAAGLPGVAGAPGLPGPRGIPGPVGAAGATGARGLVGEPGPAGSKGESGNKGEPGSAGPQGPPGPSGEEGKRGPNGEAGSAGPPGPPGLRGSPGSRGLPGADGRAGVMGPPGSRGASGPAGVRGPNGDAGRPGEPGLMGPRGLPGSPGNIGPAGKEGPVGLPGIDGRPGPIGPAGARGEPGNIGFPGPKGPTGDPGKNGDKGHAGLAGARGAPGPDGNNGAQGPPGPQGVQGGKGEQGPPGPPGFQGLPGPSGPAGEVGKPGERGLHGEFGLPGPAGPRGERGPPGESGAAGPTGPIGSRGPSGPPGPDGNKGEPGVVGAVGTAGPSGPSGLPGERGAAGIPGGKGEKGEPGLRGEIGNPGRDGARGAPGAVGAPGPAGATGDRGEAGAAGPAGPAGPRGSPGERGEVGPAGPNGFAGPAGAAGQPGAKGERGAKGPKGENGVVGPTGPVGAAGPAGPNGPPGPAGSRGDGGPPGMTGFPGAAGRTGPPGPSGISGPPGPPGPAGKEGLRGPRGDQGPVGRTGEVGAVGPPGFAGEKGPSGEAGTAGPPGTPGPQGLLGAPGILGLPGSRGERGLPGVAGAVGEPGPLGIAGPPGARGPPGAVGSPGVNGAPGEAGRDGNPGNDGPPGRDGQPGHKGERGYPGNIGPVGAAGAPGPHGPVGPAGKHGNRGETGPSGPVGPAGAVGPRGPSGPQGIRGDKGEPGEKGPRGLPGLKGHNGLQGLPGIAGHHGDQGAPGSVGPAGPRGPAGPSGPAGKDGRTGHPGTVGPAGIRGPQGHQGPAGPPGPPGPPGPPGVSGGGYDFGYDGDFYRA

binding result [1]: no binding
binding result [2]: no binding
binding result [3]: no binding
B1: anti-neoepitope antibody 20A10 (antibody, IgG1, V domains shown)
VH: QIQLVQSGPELKEPGETVRISCKASGYTFTKYGINWVKQAPGKGLEWMAWINTYSGMTTYADDFKGRFAFSLETSANTAYLQINHLKNDDTATYFCARSLGYDYGGFAYWGQGTLVTVSA
VL: DVLLTQTPLSLPVSLGDQAFISCRSGQTLVHDNENTYFHWYLQKPGQSPKLLIYKISNRFSGVPDRFSGSGSGTDFTLKISRVEPEDLGIYFCSQNTHVPFTFGSGTKLEIKR
notes: also called HRP-labeled 20A10
